How the values were obtained:
LPA5 receptor = LPA5 receptor (Homo sapiens, UniProt Q9H1C0); test: Intracellular free Ca2+ (Fura-2AM) in LPA5-expressing B103 cells; type: cell-based; set-up: host or cells: B103 rat neuroblastoma cells
Excerpt: LPA family receptors are endogenous to cells of most organs. B103 rat neuroblastoma cells, known as LPA receptor-null cells (Valentine et al., Biochim Biophys Acta 1780. 597-605) were transiently transfected with a plasmid (vector) carrying one of genes coding for LPA1(edg-2), LPA2(edg-4), LPA3(edg-7), LPA4, LPA5 and LPA6 receptors or a plasmid carrying none of them (empty vector). Two or three days after transfection, the cells are suspended, and made permeable. Then, the permeable cells are treated with Fura-2AM, a fluorescent dye binding to calcium, and then with gintonin, followed by spectrofluorephotometry to examine whether gintonin induces an increase in intracellular free Ca^2+ level. […]

GPR35 = target: T1, GPR35 (Homo sapiens, UniProt Q9HC97); test: Intracellular free Ca2+ in GPR35-expressing B103 cells; type: cell-based
T1 construct: host or cells: B103 rat neuroblastoma cells
Excerpt: Optionally, the method may further comprise (8) pre-treating the suspended B103 cells with LPA receptor antagonists and LPA receptor-mediated signaling-relevant drugs (e.g., pertussis toxin, PLC inhibitors, IP3 receptor antagonists) to examine whether the cells decrease or increase in intracellular free Ca^2+, prior to treatment with gintonin; (9) performing site-directed mutagenesis to identify an amino acid of LPA receptors with which gintonin interact to activate the LPA; and (10) examining whether gintonin activates orphan GPCRs including GPR35 and GPR87, and free fatty acid GPCRs including GPR40, GPR41, GPR43 and GPR120, all known for activation by LPA.
In addition, GPR35 (Oka et al., Biochem Biophys Res Commun. 395, 232-237, 2010) and GPR87 (Tabata et al., Biochem Biophys Res Commun. 363, 861-866, 2007), both known as orphan GPCRs reacting with LPA, and GPR40, GPR41, GPR43 and GPR120 (Hirasawa et al., Biol Pharm Bull. 31, 1847-1851, 2008), all known as fatty acid receptors reacting with free fatty acids, were expressed in B103 cells when gintonin activity was tested.

HUVECs = test: Tubular formation of HUVECs on Matrigel; type: cell-based, human; settings: gintonin 30 μg/ml, 4 hrs
Description: To examine the effect of gintonin on angiogenesis, formation of vascular tube-like structures on Matrigel was compared between the control and the gintonin-treated group (Kim et al. Biol Pharm Bull 30: 1674-1679).
Briefly, cells were incubated for 6 hrs in M199 (1% FBS). After trypsinization, the cells were suspended in M199 (1% FBS), and seeded (2×10^5 cells/well) to 24-well plates coated with Matrigel (250 μl/well).
The cells were incubated at 37° C. for 4 hrs in M199 (1% FBS) containing gintonin (30 μg/ml), and observed for tubular formation by inverted fluorescence microscopy (AxioVert200, Carl Zeiss).

LPA5 receptor, sequence (Q9H1C0 whole entry): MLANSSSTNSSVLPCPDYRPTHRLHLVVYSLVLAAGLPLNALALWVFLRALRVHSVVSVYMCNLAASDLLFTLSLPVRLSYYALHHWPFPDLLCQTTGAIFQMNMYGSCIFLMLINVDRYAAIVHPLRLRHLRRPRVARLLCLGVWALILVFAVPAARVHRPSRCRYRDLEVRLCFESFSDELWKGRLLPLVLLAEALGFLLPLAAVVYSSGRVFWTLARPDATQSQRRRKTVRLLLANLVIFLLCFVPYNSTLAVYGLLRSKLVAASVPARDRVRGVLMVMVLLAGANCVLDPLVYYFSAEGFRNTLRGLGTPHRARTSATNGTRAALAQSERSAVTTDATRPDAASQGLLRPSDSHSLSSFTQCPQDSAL
T1 sequence (Q9HC97 whole entry): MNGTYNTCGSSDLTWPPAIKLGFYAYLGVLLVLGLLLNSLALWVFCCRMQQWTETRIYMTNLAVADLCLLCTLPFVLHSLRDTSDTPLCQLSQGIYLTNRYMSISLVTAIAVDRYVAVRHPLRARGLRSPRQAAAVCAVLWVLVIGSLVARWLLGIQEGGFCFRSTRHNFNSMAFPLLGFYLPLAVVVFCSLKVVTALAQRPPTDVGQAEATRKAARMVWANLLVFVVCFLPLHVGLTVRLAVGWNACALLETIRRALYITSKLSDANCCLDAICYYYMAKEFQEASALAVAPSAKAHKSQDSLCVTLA

B1: gintonin: ginseng-derived glycolipoprotein; structural protein of ginseng major latex-like protein (MLP151) and ribonuclease-like storage proteins; crude gintonin used in tests (protein)
chain 1: MGLTGKLICQTGIKSDGDVFHELFGTRPHHVPNITPANIQGCDLHEGEFGKVGSVVIWNYSIDGNAMIAKEEIVAIDEEDKSVTFKVVEGHLFEEFKSIVFSVHVDTKGEDNLVTWSIDYEKLNESVKDPTSYLDFLLSVTRDIEAHHLPK
chain 2: RSDYPWAMFALRLQWPAGFCEVNNACDTKSLLNTFTIHGLYPYNAKGTPALYCDGTAFDVNSVSDFLAEMHLAWPSHETNTEDIQFWEHEWKKHGRCSEALLKQTDYFRTALAFRKAFDIVGLLNQEGIYPNNDLYRPKMIKEAIKKHLNAVPEIDFTKNENSEYVLTDINVCVNQQATRFVDCPTDDATDDYRLKFVRLPSKMKFADPRTNSII
EC50 (LPA5 receptor; LPA5 receptor, B103 cells, read-out: EC50, LPA receptor-mediated intracellular calcium increase): 0.046 ± 0.003 nM
increase in intracellular calcium level (LPA5 receptor; gintonin 1 μg/ml, LPA5-expressing B103 cells): 297.5 ± 21.8 µM
increase of intracellular calcium level (GPR35): increase an intracellular calcium level in GPR35-expressing B103 cells, but slightly
tubular formation (HUVECs): promoted tubular formation

— patent publication US20140234868A1, “USE FOR GLYCOLIPOPROTEIN GINTONIN, ISOLATED AND IDENTIFIED FROM GINSENG, AS A NATURAL MEDICAL-PLANT DERIVED LIGAND” (KONKUK UNIVERSITY INDUSTRIAL COOPERATION CORP., priority 2011, published 2014)
